Reference: patent publication US20060115479A1 (INTERCELL, published 2006)

T1: human fibrinogen (human, UniProt P02671 20-629; P02675 31-491; P02679 27-437)
T1 construct: also called 125I-labelled fibrinogen; immobilized fibrinogen
T1 sequence 1: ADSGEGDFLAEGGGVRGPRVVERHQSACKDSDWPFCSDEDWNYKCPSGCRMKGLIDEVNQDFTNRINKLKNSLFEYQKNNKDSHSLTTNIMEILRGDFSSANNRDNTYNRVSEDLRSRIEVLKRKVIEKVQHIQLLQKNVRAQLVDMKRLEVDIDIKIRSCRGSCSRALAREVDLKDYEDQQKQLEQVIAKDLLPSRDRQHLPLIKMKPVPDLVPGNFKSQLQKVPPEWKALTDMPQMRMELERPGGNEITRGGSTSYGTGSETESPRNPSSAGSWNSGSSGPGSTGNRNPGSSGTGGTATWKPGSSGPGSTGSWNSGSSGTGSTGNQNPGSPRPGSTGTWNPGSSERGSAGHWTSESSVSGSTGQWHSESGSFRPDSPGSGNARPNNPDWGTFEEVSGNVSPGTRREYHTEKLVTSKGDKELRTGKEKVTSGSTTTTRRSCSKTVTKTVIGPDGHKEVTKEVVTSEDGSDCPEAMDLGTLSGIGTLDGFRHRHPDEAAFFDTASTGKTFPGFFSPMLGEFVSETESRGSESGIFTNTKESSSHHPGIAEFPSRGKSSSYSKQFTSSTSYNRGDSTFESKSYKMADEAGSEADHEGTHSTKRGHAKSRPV
T1 sequence 2: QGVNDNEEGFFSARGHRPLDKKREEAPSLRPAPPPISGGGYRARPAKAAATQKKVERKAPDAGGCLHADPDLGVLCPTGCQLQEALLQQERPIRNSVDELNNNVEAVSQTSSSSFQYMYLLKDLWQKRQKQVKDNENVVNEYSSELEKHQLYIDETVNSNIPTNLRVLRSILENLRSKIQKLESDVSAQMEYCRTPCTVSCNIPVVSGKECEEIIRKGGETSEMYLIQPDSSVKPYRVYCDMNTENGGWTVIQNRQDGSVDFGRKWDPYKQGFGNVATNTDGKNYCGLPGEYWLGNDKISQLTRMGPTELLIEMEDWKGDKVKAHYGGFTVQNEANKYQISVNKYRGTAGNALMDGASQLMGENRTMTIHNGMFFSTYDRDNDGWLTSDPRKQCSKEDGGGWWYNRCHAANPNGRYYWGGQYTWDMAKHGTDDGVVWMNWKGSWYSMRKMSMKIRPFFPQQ
T1 sequence 3: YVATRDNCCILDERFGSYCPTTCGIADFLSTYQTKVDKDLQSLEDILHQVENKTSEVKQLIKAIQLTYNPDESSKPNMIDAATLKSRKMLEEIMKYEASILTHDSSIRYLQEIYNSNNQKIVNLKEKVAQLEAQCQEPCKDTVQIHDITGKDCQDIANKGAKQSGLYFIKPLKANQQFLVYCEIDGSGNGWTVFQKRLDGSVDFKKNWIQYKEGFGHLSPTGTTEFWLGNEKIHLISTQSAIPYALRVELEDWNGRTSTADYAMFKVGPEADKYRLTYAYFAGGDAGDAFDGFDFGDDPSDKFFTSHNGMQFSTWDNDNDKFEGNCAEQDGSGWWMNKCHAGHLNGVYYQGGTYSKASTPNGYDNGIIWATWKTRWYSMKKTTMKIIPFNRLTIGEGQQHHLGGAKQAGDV

B1: scrambled peptide GLSQNRDVRENQRARE (peptide)
peptide: GLSQNRDVRENQRARE
notes: Same amino acids as the repeat unit in a different order; spotted on cellulose; also called randomised peptide

Columns and labels:
human fibrinogen (human) [1] = target: human fibrinogen (human) (UniProt P02671); experiment: 125I-fibrinogen bound to whole bacteria; fbsA deletion mutant bound less than 2%
human fibrinogen (human) [2] = target: human fibrinogen (human) (UniProt P02671); experiment: FITC-labelled bacteria on fibrinogen-coated Terasaki plates; less than 2% of the fbsA mutant bound
human fibrinogen (human) [3] = target: human fibrinogen (human) (UniProt P02671); experiment: FITC-labelled bacteria on immobilized fibrinogen; less than 2% of the fbsA mutants bound (FIG. 23)
human fibrinogen (human) [4] = target: human fibrinogen (human) (UniProt P02671); experiment: radiolabelled soluble human fibrinogen bound to whole GBS 6313 cells; the filing later attributes the binding to FbsA
human fibrinogen [5] = target: T1, human fibrinogen; experiment: refers to the SPOT membrane analysis of FIG. 11
human fibrinogen [6] = target: T1, human fibrinogen; experiment: dot blot / SPOT membrane overlaid with human fibrinogen (FIG. 11)

Molecule	percent binding of 125I-labelled soluble fibrinogen (human fibrinogen (human) [1]) [%]	percent of total bacteria bound to immobilized fibrinogen (human fibrinogen (human) [2]) [%]	percent of total bacteria bound to immobilized fibrinogen (human fibrinogen (human) [3]) [%]	binding result (human fibrinogen [5])	other results
FbsA protein of GBS strain 706 S2 (native) (receptor)	8	15	14		
FbsA protein of GBS strain O90R (native) (receptor)	12	24	18		
FbsA protein of GBS strain 0176 H4A (native) (receptor)			4		
FbsA protein of GBS strain 6313 (native) (receptor)	50	45	45		percent of total radiolabelled fibrinogen bound (human fibrinogen (human) [4]): 50%
FbsA protein of GBS strain SS1169 (native) (receptor)			7		
GAVLERRQRDAENRSQ (also called peptide <2>; N2A) [alanine mutant peptide GAVLERRQRDAENRSQ]				no binding	
GNVLERAQRDAENRSQ (also called peptide <5>; R7A) [alanine mutant peptide GNVLERAQRDAENRSQ]				no binding	
GNALERRQRDAENRSQ (also called peptide <3>; V3A) [alanine mutant peptide GNALERRQRDAENRSQ]				no binding	
B1					binding result (human fibrinogen [6]): no binding (tested: 2 µg/ml of human fibrinogen)
